For this assay, the target named is Chikungunya virus-like particles (strain 37997) (chikungunya virus) (UniProt Q8JUX5). The assay is described as follows: BLI.

pKd: −log10 of the molar value.

Kd data for 1 substance are collected here from paper PMC10615782.

For orientation: pKd means the negative decadic logarithm of the Kd, by convention in mol/L.

“Monovalent mouse MXRA8 cleaved from the Fc fusion (from UniProt Q9DBV4 22-336) (domain or fragment)” showed a negative-log Kd (pKd) of 7.17.
